For 1 substance, increase in the amount of target cleaved by MIWI piRISC (S.D. = 0.1; p = 0.0027) results are on record in publication doi:10.1101/2021.05.04.442675.

The test addresses FLAG-tagged MIWI piRISC made in BmN4 cells (mouse) (UniProt Q9JMB7).

Sequence of FLAG-tagged MIWI piRISC made in BmN4 cells (mouse) (Q9JMB7 whole entry): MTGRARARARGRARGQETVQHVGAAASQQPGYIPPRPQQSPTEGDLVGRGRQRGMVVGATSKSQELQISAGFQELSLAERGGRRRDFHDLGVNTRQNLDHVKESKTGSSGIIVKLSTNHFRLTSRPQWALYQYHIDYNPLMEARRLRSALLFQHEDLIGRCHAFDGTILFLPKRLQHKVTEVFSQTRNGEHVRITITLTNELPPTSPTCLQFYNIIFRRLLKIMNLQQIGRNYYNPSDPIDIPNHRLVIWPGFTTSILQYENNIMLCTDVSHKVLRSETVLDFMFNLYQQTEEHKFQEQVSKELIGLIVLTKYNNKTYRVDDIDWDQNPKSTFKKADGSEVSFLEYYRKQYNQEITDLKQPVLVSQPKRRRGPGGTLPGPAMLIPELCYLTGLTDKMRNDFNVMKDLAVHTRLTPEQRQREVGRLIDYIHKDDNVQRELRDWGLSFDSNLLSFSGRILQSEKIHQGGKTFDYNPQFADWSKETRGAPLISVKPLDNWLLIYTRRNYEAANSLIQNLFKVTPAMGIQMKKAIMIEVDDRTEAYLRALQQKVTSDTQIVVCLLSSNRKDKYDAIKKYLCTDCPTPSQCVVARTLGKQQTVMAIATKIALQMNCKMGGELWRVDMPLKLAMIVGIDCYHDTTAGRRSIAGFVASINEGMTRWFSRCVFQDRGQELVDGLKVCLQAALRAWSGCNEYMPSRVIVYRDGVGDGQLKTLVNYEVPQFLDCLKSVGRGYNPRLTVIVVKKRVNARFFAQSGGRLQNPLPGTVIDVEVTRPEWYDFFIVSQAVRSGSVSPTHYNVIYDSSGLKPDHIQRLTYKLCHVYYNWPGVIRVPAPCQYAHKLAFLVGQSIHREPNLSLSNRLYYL

Turning to “BmGtsf1-like, silk moth (Bombyx mori), V5SBP-tagged recombinant (natural protein)”, the increase in the amount of target cleaved by MIWI piRISC (S.D. = 0.1; p = 0.0027) is 2.6 fold.
